Assay results taken from patent EP4335870A1.

Molecular target: SARS-CoV-2 Spike RBD K417N/N501Y (SARS-CoV-2) (UniProt P0DTC2)

Substance | Kd [nM] | koff [s⁻¹] | kon [M⁻¹ s⁻¹]
ACE2(T27Y/H34A/H374N)-IgG1Fc (from UniProt Q9BYF1 18-615) (Fc fusion) | 0.447 | 0.000334 | 747000
ACE2-Fc IgG Hybrid Protein (ACE2-IgG1Fc, wildtype) (Fc fusion) | 7.6 | 0.00347 | 457000
